PMC8452523 (Cell Reports, 2021)

Target: trimeric Spike, full B.1.351 variant (SARS-CoV-2, lineage B.1.351 (Beta), strain)
Experiment: Luminex bead-based binding assay

B1: REGN10933 (antibody, V domains shown)
VH: QVQLVESGGGLVKPGGSLRLSCAASGFTFSDYYMSWIRQAPGKGLEWVSYITYSGSTIYYADSVKGRFTISRDNAKSSLYLQMNSLRAEDTAVYYCARDRGTTMVPFDYWGQGTLVTVSS
VL: DIQMTQSPSSLSASVGDRVTITCQASQDITNYLNWYQQKPGKAPKLLIYAASNLETGVPSRFSGSGSGTDFTFTISGLQPEDIATYYCQQYDNLPLTFGGGTKVEIK
Question: B1 was tested. Which “fold reduced binding affinity” value did it give?
Answer: 15 fold
